Assay results reported in patent publication EP0765166B1, “RADIOLABELED ANNEXIN-GALACTOSE CONJUGATES” (NEORX CORPORATION, priority 1994, dated 1995).

Details: in vivo, iv
Procedure: • A. Animal Preparation - LA Vascular Thrombi. Fasting 25-30 kg Yorkshire swine were sedated with intramuscular Telazol (5-10 mg/kg) (commercially available from AVECO Co.) and commercially available Atropine (1 mg, Elkins-Sinn, Inc., Cherry Hill, NJ). Surital (200 mg) (commercially available from Abbott Laboratories) anaesthesia was administered intravenously. The animals were intubated and given inhalation anaesthesia of 1.5-2% halothane (commercially available from Abbott Laboratories) and O2 sufficient to obtain a deep level of anesthesia and physiologic arterial blood gases. Continuous electrocardiographic monitoring was instituted using alligator clip electrodes. A cut down in the neck region was conducted, and an 8 french catheter (USCI Co, Billerica, MA) was placed in the right common carotid artery for blood pressure and arterial blood gas monitoring as well as for blood sampling. The swine were placed in a right lateral decubitus position, and a lateral thoracotomy was performed to expose the heart. The incision was held open by a thoracotomy retractor. The pericardium was opened, and the left atrial appendage was isolated from the left atrium by a vascular cross- clamp. Rubber tipped forceps were used to gently crush the appendage. Five minutes later, ricinoleate (1 mg, ICN Pharmaceuticals, Costa Mesa, CA) and thrombin ([…], Johnson and Johnson Co., Arlington, Texas) were injected into the LAA (left atrial appendage) using a 27 Ga needle. The cross-clamp was removed 10 minutes later. One hour after the crush injury, Tc-99m-annexin V, prepared in accordance with Example I above, was administered as an intravenous bolus dose in an ear vein. The intravenous line was then flushed with saline. In 7 animals, I-125 labeled ovalbumin was administered as a non-specific control preparable, for example, by the procedure described by Fraker et al., Biochem. Biophys. Res. Commun. 80: 849-57, 1978). Briefly, I-125-radiolabeled ovalbumin was prepared by the Iodogen method, employing 600 µg ovalbumin (Sigma Chemical Co., St. Louis, Missouri) and NaI-125 (2mCi, 0.92 nmol). Image acquisition was performed as described below. At the end of the experimental procedure (generally about 150 minutes), the animals were sacrificed by an intravenous bolus dose of 80 mEq of KCl while the animals were still under general anaesthetic. A final blood sample was taken for well counting. The heart was rapidly excised, washed free of blood and dissected into samples for well counting. Additional samples of carotid artery, lung, liver, spleen, muscle and kidney were obtained in some animals. • B. Controls. Five different types of controls were used: open chest sham; closed chest sham; ovalbumin; indium platelets; and non-specific Tc-99m-labeled antibody. • 1. Open Chest Sham. […]

In the case of “Tc-99m-annexin V: Annexin V radiolabeled with Tc-99m by using a diamide dimercaptide N2S2 chelate (Comparative Example I)”, the a is reported as “a = 0.0389 %ID/g”, the b is reported as “b = 0.0300 %ID/g” and the t1/2 a is reported as “t1/2 a = 9.6 min”. For the same substance, the t1/2 b was “t1/2 b = 46 min”.
